What follows are compounds tested on Mab 2G12 binding to gp120JR-FL (assay: Competition ELISA: inhibition of 2G12 binding to gp120JR-FL by carbohydrates). Conditions: 2G12 1 μg/ml.
Set-up: species or system HIV-1
Method: Competition enzyme-linked immunosorbent assays (ELISAs) were performed to determine the relative inhibition constants of different carbohydrates on 2G12. GP120JR-FL was first captured onto microtiter plate wells (flat bottom, Costar type 3690; Corning Inc.). Subsequently serial dilutions of Man9GlcNAc2, Manα1-2Man, mannose, and other mono- and disaccharides were added to the wells in the presence of 2G12 (1 μg/ml). Subsequent blocking, washing, and detection steps were performed as described in (13).

Row | Compound | inhibition of 2G12 binding to gp120 (in words)
1 | O=C(CO)[C@@H](O)[C@H](O)[C@H](O)CO [Fructose] | better inhibitor than mannose

Same assay, conditions: relative to Manα1-2Man; 2G12 1 μg/ml

Row | Compound | inhibition of Mab 2G12 binding to gp120JR-FL compared to the disaccharide Manα1-2Man
2 | CC(=O)N[C@H]1[C@H](O[C@H]2[C@H](O)[C@@H](NC(C)=O)C(O)O[C@@H]2CO)O[C@H](CO)[C@@H](O[C@@H]2O[C@H](CO[C@H]3O[C@H](CO[C@H]4O[C@H](CO)[C@@H](O)[C@H](O)[C@@H]4O[C@H]4O[C@H](CO)[C@@H](O)[C@H](O)[C@@H]4O)[C@@H](O)[C@H](O[C@H]4O[C@H](CO)[C@@H](O)[C@H](O)[C@@H]4O[C@H]4O[C@H](CO)[C@@H](O)[C@H](O)[C@@H]4O)[C@@H]3O)[C@@H](O)[C@H](O[C@H]3O[C@H](CO)[C@@H](O)[C@H](O)[C@@H]3O[C@H]3O[C@H](CO)[C@@H](O)[C@H](O)[C@@H]3O[C@H]3O[C@H](CO)[C@@H](O)[C@H](O)[C@@H]3O)[C@@H]2O)[C@@H]1O (stereo partly drawn) [Man9GlcNAc2] | over 50 fold

Same assay, conditions: relative to mannose; 2G12 1 μg/ml

Row | Compound | inhibition of Mab 2G12 binding to gp120JR-FL compared to mannose (relative IC50)
3 | CC(=O)N[C@H]1[C@H](O[C@H]2[C@H](O)[C@@H](NC(C)=O)C(O)O[C@@H]2CO)O[C@H](CO)[C@@H](O[C@@H]2O[C@H](CO[C@H]3O[C@H](CO[C@H]4O[C@H](CO)[C@@H](O)[C@H](O)[C@@H]4O[C@H]4O[C@H](CO)[C@@H](O)[C@H](O)[C@@H]4O)[C@@H](O)[C@H](O[C@H]4O[C@H](CO)[C@@H](O)[C@H](O)[C@@H]4O[C@H]4O[C@H](CO)[C@@H](O)[C@H](O)[C@@H]4O)[C@@H]3O)[C@@H](O)[C@H](O[C@H]3O[C@H](CO)[C@@H](O)[C@H](O)[C@@H]3O[C@H]3O[C@H](CO)[C@@H](O)[C@H](O)[C@@H]3O[C@H]3O[C@H](CO)[C@@H](O)[C@H](O)[C@@H]3O)[C@@H]2O)[C@@H]1O (stereo partly drawn) [Man9GlcNAc2] | over 200 fold

These compounds were tested against HIV-1 gp120 JR-FL (HIV-1 (JR-FL)) (assay: ELISA, crude Fab on gp120JR-FL; apparent affinity wt/mutant x100%). Conditions: not given.

Row | Compound | % Affinity Relative to Wild Type [%]
4 | Fab 2G12 mutant H R39Q | 170
5 | Fab 2G12 mutant L S28A | 0.1
6 | Fab 2G12 mutant H T33A | 2
7 | Fab 2G12 mutant H L100A | 0.1
8 | Fab 2G12 mutant H K95A | 170
9 | Fab 2G12 mutant H R57A | 0.1
10 | Fab 2G12 mutant H L74A | 130
11 | Fab 2G12 mutant L G93A | 120
12 | Fab 2G12 mutant H N100cA | 0.1
13 | Fab 2G12 mutant H D100bA | 52
14 | Fab 2G12 mutant H I19A | 0.5
15 | Fab 2G12 mutant H Y56A | 2
16 | Fab 2G12 mutant H P113S | 0.1
17 | Fab 2G12 mutant H P113A | 0.1
18 | Fab 2G12 mutant H F77A | 0.1
19 | Fab 2G12 mutant H Y79A | 0.1
20 | Fab 2G12 mutant H V84A | 0.1
21 | Fab 2G12 mutant H T52aA | 190
22 | Fab 2G12 mutant H D100dA | 120
23 | Fab 2G12 mutant H S100aA | 0.1

The next lines start with the values.

Row | % Affinity Relative to Wild Type [%] | Compound
24 | 50 | Fab 2G12 mutant L W32A
25 | 1.1 | Fab 2G12 mutant H E75A
26 | 0.1 | Fab 2G12 mutant H T55A
27 | 103 | Fab 2G12 mutant H E76A
28 | 51 | Fab 2G12 mutant H K82bA
29 | 59 | Fab 2G12 mutant H R83A
30 | 130 | Fab 2G12 mutant H R39A
31 | 0.4 | Fab 2G12 mutant H H32A
32 | 20 | Fab 2G12 mutant H G96A
33 | 0.1 | Fab 2G12 mutant H S54A

Source: patent US20050003347A1, “Domain-exchanged binding molecules, methods of use and methods of production” (priority 2003, published 2005)
